This assay has as its target β-arrestin2 (β-arr2) (UniProt Q91YI4). Briefly: co-IP, anti-Myc IP, anti-GFP blot. The conditions noted are these: reference: wild type; sites S592,S594,T597,S599,S615,S619,S620,S642,S666,S774,S777,S791.

For “Smo (mSmo, mammalian Smoothened) (from UniProt P56726) SA mutant (taken as SA0–5)”, the “binding against the reference” value was “weaker”.

Source of the values: publication PMC3114773.
